Patent publication US20180273584A1 (REGENTS OF THE UNIVERSITY OF MICHIGAN, published 2018)
Primed or numbered codes have the meaning given here. Ends that are not written are not given here. Cy5.5 = Cy5.5: Cy5.5 fluorophore (fluorescent dye); Cy5.5″ = Cy5.5 fluorophore

What was measured:
[1] = target: HER2 over expressed in mouse colonic neoplasia (CPC;Apc mice) (mouse) (UniProt P70424); assay: in vivo NIR fluorescence endoscopy, topical peptide, n=7 adenomas in mice, target-to-background ratio
Chain of HER2 over expressed in mouse colonic neoplasia (CPC;Apc mice) (mouse) (P70424 23-1256): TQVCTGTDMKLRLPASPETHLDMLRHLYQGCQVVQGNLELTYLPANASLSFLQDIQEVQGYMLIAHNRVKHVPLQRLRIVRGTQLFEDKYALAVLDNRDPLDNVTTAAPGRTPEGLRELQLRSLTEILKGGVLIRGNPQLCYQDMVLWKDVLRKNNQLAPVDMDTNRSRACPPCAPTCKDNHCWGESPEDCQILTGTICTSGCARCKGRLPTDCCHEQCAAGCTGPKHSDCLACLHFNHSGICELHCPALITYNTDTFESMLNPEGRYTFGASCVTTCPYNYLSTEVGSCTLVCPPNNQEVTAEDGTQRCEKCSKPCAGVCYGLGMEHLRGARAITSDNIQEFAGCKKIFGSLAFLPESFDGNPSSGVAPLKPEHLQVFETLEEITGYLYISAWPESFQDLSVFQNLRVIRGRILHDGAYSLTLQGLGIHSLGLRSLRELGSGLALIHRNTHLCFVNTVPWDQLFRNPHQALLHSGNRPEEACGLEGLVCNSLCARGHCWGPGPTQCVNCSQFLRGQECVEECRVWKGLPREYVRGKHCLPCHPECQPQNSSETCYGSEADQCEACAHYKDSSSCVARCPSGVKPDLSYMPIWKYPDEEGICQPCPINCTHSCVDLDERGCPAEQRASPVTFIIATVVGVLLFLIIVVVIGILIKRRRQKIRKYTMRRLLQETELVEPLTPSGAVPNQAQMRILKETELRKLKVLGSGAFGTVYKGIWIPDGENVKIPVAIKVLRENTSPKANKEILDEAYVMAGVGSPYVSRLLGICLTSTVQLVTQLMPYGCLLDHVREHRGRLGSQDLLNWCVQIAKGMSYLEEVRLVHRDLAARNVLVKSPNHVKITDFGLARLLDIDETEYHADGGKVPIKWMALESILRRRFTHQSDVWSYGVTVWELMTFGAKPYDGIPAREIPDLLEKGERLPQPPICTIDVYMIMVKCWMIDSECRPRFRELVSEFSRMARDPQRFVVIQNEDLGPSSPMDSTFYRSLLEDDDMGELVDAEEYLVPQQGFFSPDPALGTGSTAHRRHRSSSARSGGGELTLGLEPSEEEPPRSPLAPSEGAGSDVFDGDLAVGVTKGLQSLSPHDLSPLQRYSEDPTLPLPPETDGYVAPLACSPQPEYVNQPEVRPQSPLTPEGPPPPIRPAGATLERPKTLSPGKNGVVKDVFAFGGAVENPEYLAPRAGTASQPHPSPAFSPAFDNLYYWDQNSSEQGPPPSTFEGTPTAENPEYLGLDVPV

[2] = target: T1, HER2 over expressed in mouse colonic neoplasia (CPC;Apc mice) (mouse, UniProt P70424 23-1256); assay: in vivo NIR fluorescence endoscopy, topical peptide, n=15 adenomas in mice, target-to-background ratio
T1 construct: whole, on cells; also called mouse HER2
T1 sequence (P70424 23-1256): as above
Method: Mouse imaging studies were performed with approval of the University of Michigan Committee on the Use and Care of Animals (UCUCA). The mice were housed in pathogen-free conditions and supplied water ad libitum under controlled conditions of humidity (50±10%), light (12/12 hour light/dark cycle) and temperature (25° C.). Anesthesia was induced and maintained via a nose cone with inhaled isoflurane mixed with oxygen at a concentration of 2-4% at a flow rate of ˜0.5 L/min. The colon was first rinsed with tap water to remove mucous and debris. White light illumination was used first to identify anatomic landmarks, including polyps, mucosal folds, colonic segment, and distance of endoscope tip from anus, to register the in vivo images with histology. […] During imaging, we recorded the 1) distance between the endoscope tip and the anus and 2) clockwise location of each region of high intensity. […]
We evaluated specific binding of KSP*-Cy5.5 to colonic adenomas that over express HER2 in CPC; Apc mice This mouse was genetically engineered to somatically delete an Apc allele under Cre regulation, and develops polypoid and flat adenomas spontaneously in the colon. […] Imaging was performed in vivo using a small animal endoscope that is sensitive to NIR fluorescence. […]

[3] = target: T2, Human epidermal growth factor receptor 2 (HER2) (human, UniProt P04626 23-1255); assay: flow cytometry on HT29 cells, apparent dissociation constant, 0-200 nM peptide, 4 °C 1 h
T2 construct: whole, on cells; also called ErbB2
Method: We measured the apparent dissociation constant of the HER2 peptide reagent to HT29 cells as an assessment of binding affinity. KSP*-Cy5.5 was serially diluted in PBS at concentrations of 0, 5, 10, 25, 50, 100, and 200 nM. ˜105 HT29 cells were incubated with KSP*-Cy5.5 at 4° C. for 1 hour and washed with cold PBS. The mean fluorescence intensities were measured with flow cytometry (BD® LSRII, BD Biosciences). The equilibrium dissociation constant kd=1/ka was calculated by performing a least squares fit of the data to the non-linear equation I, (I0+Imaxka[X])/([…]). I0 and Imax are the initial and maximum fluorescence intensities, corresponding to no peptide reagent and at saturation, respectively, and [X] represents the concentration of the bound peptide reagent. Graphpad prism analysis software (Graphpad Software Inc, La Jolla, Calif.) was used to calculate kd and ka.
We evaluated the binding parameters of KSP*-Cy5.5 to HT29 cells using flow cytometry.

[4] = target: T1, HER2 over expressed in mouse colonic …; assay: fluorescence imaging of mouse colon after intravenous KSP*-Cy5.5, n=4 mice
[5] = target: T2, Human epidermal growth factor receptor …; assay: confocal microscopy, 10 µM FITC-labeled peptide on Flo1-HER2 cells against Q-hTERT control cells
Method: Flo-1-Her2 and Q-hTERT cells were seeded with ˜7,500 cells in 12-well plates with 1.5 mm thick glass cover slides, and grown to ˜70% confluence. The cells were gently washed with cold PBS before adding the peptide. 10 μM of FITC-labeled peptide was added to each well and incubated at 4° C. for 1 hour. After incubation, the cells were washed 3× with PBS, fixed in ice-cold 4% PFA for 10 min, and washed 1× with PBS. Subsequently, the cells were embedded on microscope slides with ProLong Gold reagent containing DAPI (Invitrogen), and the slides where analyzed with a Leica TCS SP5 confocal microscope using 63× oil immersion objective (Leica Microsystems, Leider Lane IL). The FITC-labeled peptides and anti-HER2 antibody were tested in quadruplicate.
We attached a FITC label to each peptide, and imaged binding to Flo1-HER2 and Q-hTERT cells (control) using confocal microscopy. Western blot of these cells show difference in HER2 expression, FIG. 1B. We selected KSPNPRF based on the highest mean fluorescence intensity with binding to Flo1-HER2, FIG. 1C. From our model, this peptide binds to HER2 domain 3. […] The fluorescence emission peak occurs at 708 nm in the NIR spectrum. For both peptides, we achieved >98% purity with HPLC, and measured an experimental mass-to-charge (m/z) ratio on mass spectrometry of 1794.98, which agrees with expected values, FIG. 8A,B.

Binder: PPSNFKRGGGSK(Cy5.5″)-NH2 [PPS*-Cy5.5 (scrambled control peptide PPSNFKR linked to Cy5.5 via GGGSK)]
- mean T/B ratio [1]: 1.46

B1: KSP*-Cy5.5 (KSPNPRF peptide labeled with Cy5.5 fluorophore via a GGGSK linker on the C-terminus) (peptide)
peptide: KSPNPRFGGGSK(Cy5.5)-NH2
notes: Synthetic L-amino-acid peptide, Fmoc solid-phase synthesis; also called HER2 peptide reagent; KSP*-Cy5.5 peptide reagent
- mean T/B ratio [2]: 3.64
- Kd [3]: 21 nM
- fold mean fluorescence intensity, adenomas against surrounding normal mucosa [4]: 5.03 fold

Binder: KSPNPRF (also: FITC label, site of attachment not given here, also called FITC-labeled peptide) [FITC-labeled KSPNPRF (PEP1)]
- binding result [5]: binds
